Patent US10188742B2, “Bi-specific antibodies and uses thereof” (ACADEMIA SINICA, priority 2014, dated 2019)

Legend:
[1] = system: Jurkat T cells (Tag-72 positive); assay: Cancer cell selectivity of hE11 BsAbs (surface immunofluorescence); format: cell-based, human; settings: culture medium, FIG. 10
Description: PEG2×TAG72 or control PEG2×DNS BsAbs (10 μg/mL) were incubated with A-375 (TAG72−), MCF-7 (TAG72+), Jurkat (TAG72+) or OVCAR-3 (TAG72+) cells at 4° C. for 30 min followed by FITC-labeled goat anti-human immunoglobulin second antibody (2 μg/mL) (Jackson ImmunoResearch Laboratories, West Grove, Pa.) or FITC-labeled 4arm-PEG (2 μg/mL). Tumor-specific targeting of PEGylated compounds was also examined by staining A431 (EGFR^high), and Raji (CD19^high) cell lines with 10 μg/mL of h6.3Fab×EGFR or h6.3Fab×CD19 BsAbs in PBS containing 0.05% BSA (staining buffer) at 4° C. for 30 min. The cells were washed with cold PBS for 3 times. […] After washing with cold PBS, the surface fluorescence of 10^4 viable cells was measured by FACScaliber flow cytometer (Becton Dickinson, Mountain View, Calif., USA) then analyzed with Flowjo (Tree Star Inc., San Carlos, Calif., USA). […]
The binding specificity of monovalent BsAbs with their target proteins was measured by collecting the culture medium of BsAbs producing cells, adding the collected medium to cells that expressed the target protein, then determining the binding by ELSA. After washing the cells, the bound BsAbs were detected by FITC-labeled goat anti-human immunoglobulin second antibody. […]

A431 (EGFR+) tumor cells = assay: Confocal live cell imaging of PEG-Qdot655 internalization; format: cell-based, human; settings: 10 μg/mL BsAb, 16 nM PEG-Qdot655
Description: The coverslips (30 mm) in POC chambers were coated with 10 μg/mL poly-L-lysine in PBS for 30 min at room temperature. The coverslips were washed twice with PBS and then 5×10^4 cells/chamber of A431 (EGFR+) tumor cells were seeded on the coverslips. A431 cells were incubated with 10 μg/mL of h6.3Fab×EGFR or h6.3Fab×CD19 BsAbs at 37° C. for 30 min containing 1 μg/mL of Hoechst 33342 and 100 nM of LysoTracker® Red DND-99 (Invitrogen Life Technologies Corporation, NY, USA). The cells were washed with culture medium for 2 times. Cell imaging was recorded with an Axiovert 200M Confocal Microscope (Carl Ziess Inc., Thornwood, N.Y.) after adding 16 nM of PEG-Qdot655 solution (Invitrogen Life Technologies Corporation, NY, USA).
To verify whether BsAb-targeted substance could be internalized by antigen-positive cancer cells, live cell imaging was performed by staining cells with lysosome tracker and BsAbs, followed by the addition and incubation of PEG-Qdot655.

[2] = ELISA PEG binding of h6.3 BsAbs; settings: FIG. 14A
Description: […] The plates were washed with PBS-T (PBS containing 0.05% Tween-20) three times. Rabbit anti-6×His (2 μg/mL) supplemented with HRP-conjugated goat anti-rabbit (2 μg/mL) or HRP-conjugated goat Ig anti human IgG Fab (2 μg/mL) (Jackson ImmunoResearch Laboratories, West Grove, Pa.) in 50 μL dilution buffer were added for 1 h at room temperature. The plates were washed with PBS-T (PBS containing 0.05% Tween-20) three times and with PBS two times. Bound peroxidase activity was measured by adding 150 μL/well ABTS substrate solution (BioLegend, San Diego, Calif.) for 30 min at room temperature. The absorbance (405 nm) of wells was measured in a microplate reader (Molecular Device, Menlo Park, Calif.).
The PEG-binding kinetics of h6-3Fab×EGFR and h6.3Fab×CD19 BsAbs were verified by Microscale Thermophoresis (MST) (FIGS. 14D and 14E).

BSA = BSA (Bos taurus, UniProt P02769); assay: ELISA antigen binding of BsAbs, control protein
BSA, sequence (P02769 25-607): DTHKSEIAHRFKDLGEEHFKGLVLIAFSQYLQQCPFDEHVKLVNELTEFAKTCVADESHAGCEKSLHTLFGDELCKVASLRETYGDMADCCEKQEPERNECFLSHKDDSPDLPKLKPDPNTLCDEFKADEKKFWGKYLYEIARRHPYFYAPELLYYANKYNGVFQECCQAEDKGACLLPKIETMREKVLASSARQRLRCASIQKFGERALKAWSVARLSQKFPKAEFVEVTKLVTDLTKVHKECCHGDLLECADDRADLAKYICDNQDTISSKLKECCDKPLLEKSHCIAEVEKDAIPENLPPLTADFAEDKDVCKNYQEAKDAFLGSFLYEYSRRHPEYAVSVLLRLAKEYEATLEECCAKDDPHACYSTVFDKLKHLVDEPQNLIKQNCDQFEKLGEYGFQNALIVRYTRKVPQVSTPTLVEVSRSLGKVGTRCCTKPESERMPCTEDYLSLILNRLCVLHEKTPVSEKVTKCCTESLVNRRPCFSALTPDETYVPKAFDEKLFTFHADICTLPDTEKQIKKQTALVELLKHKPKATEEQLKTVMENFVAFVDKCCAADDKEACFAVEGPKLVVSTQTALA
Description: (§1) The anti-PEG binding specificity of BsAbs was measured by adding graded concentrations of PEG2×TAG72, PEG2×DNS, hCC49 scFv, h6.3Fab×EGFR or h6.3Fab×CD19 in 50 μL 2% skim milk to the mucin, BSA-PEG5000, NH2-PEG3k-NH2 or BSA coated plates at RT for 1 h. The plates were washed with PBS-T (PBS containing 0.05% Tween-20) three times. Rabbit anti-6×His (2 μg/mL) supplemented with HRP-conjugated goat anti-rabbit (2 μg/mL) or HRP-conjugated goat Ig anti human IgG Fab (2 μg/mL) (Jackson ImmunoResearch Laboratories, West Grove, Pa.) in 50 μL dilution buffer were added for 1 h at room temperature. The plates were washed with PBS-T (PBS containing 0.05% Tween-20) three times and with PBS two times. Bound peroxidase activity was measured by adding 150 μL/well ABTS substrate solution (BioLegend, San Diego, Calif.) for 30 min at room temperature. The absorbance (405 nm) of wells was measured in a microplate reader (Molecular Device, Menlo Park, Calif.).
Binding of the BsAbs was detected by ELISA. Microtiter plates were first coated with antigens and then PEG2×TAG72, PEG2×DNS BsAbs or hCC49 (anti-TAG72) single chain antibody was added. After the plates were extensively washed to remove unbound antibodies, the remaining bound antibodies in each well were detected with HRP-conjugated secondary antibody. […] In sum, PEG2×TAG72 anti-PEG (hE11) BsAb of example 1.2 can bind both PEG and tumor antigens. […]

Raji (CD19+) cells = assay: Cytotoxicity assay of Doxisome with h6.3 BsAbs (3H-thymidine); format: cell-based; settings: compared with Doxisome alone
Description: A431 (EGFR^high) and Raji (CD19^high) cells (5000 cells/well) were seeded in 96-well plates overnight. Fifteen microgram per mL of h6.3Fab×EGFR or h6.3Fab×CD19 BsAbs were added to the cells for 30 min at 37° C. and followed by graded concentrations of free doxorubicin or PEGylated liposomal doxorubicin (Doxisome®, Taiwan Liposome Company Ltd., Taipei, Taiwan) was added to the cells in triplicate at 37° C. for 4 h. The cells were subsequently washed once and incubated for an additional 48 h in fresh culture medium and then pulsed for 16 h with ^3H-thymidine (1 μCi/well). Results are expressed as percent inhibition of ^3H-thymidine incorporation into cellular DNA in comparison to untreated cells.
Next, the ability of whether h6.3Fab×CD19 and h6.3Fab×EGFR BsAbs could increase the cytotoxicity of the drug-loaded nanoparticles (NPs) to antigen-positive cancer cells was investigated. Raji (CD19+) and A431 (EGFR+) cells were incubated with h6.3Fab×CD19 and h6.3Fab×EGFR, followed by the addition of graded concentrations of Doxisome (i.e., PEGylated liposomal doxorubicin).

Raji cells (CD19+) = assay: Flow cytometry: BsAb-directed PEG-liposome Texas Red / PEG-Qdot655 on cells; format: cell-based; settings: PEG-liposome Texas Red and PEG-Qdot655, 10 μg/mL BsAb
Description: PEG2×TAG72 or control PEG2×DNS BsAbs (10 μg/mL) were incubated with A-375 (TAG72−), MCF-7 (TAG72+), Jurkat (TAG72+) or OVCAR-3 (TAG72+) cells at 4° C. for 30 min followed by FITC-labeled goat anti-human immunoglobulin second antibody (2 μg/mL) (Jackson ImmunoResearch Laboratories, West Grove, Pa.) or FITC-labeled 4arm-PEG (2 μg/mL). Tumor-specific targeting of PEGylated compounds was also examined by staining A431 (EGFR^high), and Raji (CD19^high) cell lines with 10 μg/mL of h6.3Fab×EGFR or h6.3Fab×CD19 BsAbs in PBS containing 0.05% BSA (staining buffer) at 4° C. for 30 min. The cells were washed with cold PBS for 3 times. PEG-Qdot655 (8 nM) (Invitrogen, Grand Island, N.Y.) or PEG-liposomal Texas-Red (100 nm size, 50 μM, lipid conc.) (FormuMax Scientific, Palo Alto, Calif.) in staining buffer was added to cells for 30 min at 4° C. Raji cells (CD19+) or SKBR3 cells (HER2+) were incubated with 10 μg/ml h15-2b-knob/BU12-hole, h15-2b-knob/anti-Her2-hole, h6-3-knob/BU12-hole or h6-3-knob/anti-Her2-hole BsAbs, washed and incubated with 0.25 μg/ml FITC-labeled goat anti-human IgG or 10 nM methoxy-PEG Qdot 655 at 4° C. for 30 min. After washing with cold PBS, the surface fluorescence of 10^4 viable cells was measured by FACScaliber flow cytometer (Becton Dickinson, Mountain View, Calif., USA) then analyzed with Flowjo (Tree Star Inc., San Carlos, Calif., USA). […]

[3] = system: mucin (TAG-72 tumor antigen); assay: ELISA antigen binding of hE11 BsAbs; settings: FIG. 6A
Description: as §1
Binding of the BsAbs was detected by ELISA. Microtiter plates were first coated with antigens and then PEG2×TAG72, PEG2×DNS BsAbs or hCC49 (anti-TAG72) single chain antibody was added. After the plates were extensively washed to remove unbound antibodies, the remaining bound antibodies in each well were detected with HRP-conjugated secondary antibody. […] In sum, PEG2×TAG72 anti-PEG (hE11) BsAb of example 1.2 can bind both PEG and tumor antigens.

B1: PEG×TAG72: monovalent BsAb: hE11 anti-PEG Fab fused to anti-TAG72 scFv (example 2.1) (protein)
light: DVVMTQSPLSLPVTLGQPASISCRSSKSIVHSNGNTYLEWFQQRPGQSPRRLIYKVSKRMSGVPDRFSGSGSGTDFTLKISRVEAEDVGVYYCSQGSHVPPTFGGGTKVEIKRTVAAPSVFIFPPSDEQLKSGTASVVCLLNNFYPREAKVQWKVDNALQSGNSQESVTEQDSKDSTYSLSSTLTLSKADYEKHKLYACEVTHQGLSSPVTKSFNRGEC
heavy: QVQLVQSGAEVKKPGASVKVSCKASGYTFTTYTMNWVRQAPGQGLEWMGYIIPSSGYVDYNQKFKGRVTMTRDTSTSTVYMELSSLRSEDTAVYYCVRSLDGYFWFAYWGQGTLVTVSSASTKGPSVFPLAPSSKSTSGGTAALGCLVKDYFPEPVTVSWNSGALTSGVHTFPAVLQSSGLYSLSSVVTVPSSSLGTQTYICNVNHKPSNTKVDKRVVDLVTVSSASTGGGSGQLGGGGSQVQLVQSGAEVKKPGASVKVSCKASGYTFTDHAIHWVRQAPGQCLEWMGYFSPGNDDFKYSQKFQGRVTITADKSASTAYMELSSLRSEDTAVYYCARSWIMQYWGQGTLVTVSSGGGGSGGGGSGGGGSDIVMTQSPDSLAVSLGERATINCKSSQSVLYSSNNKNYLAWYQQKPGQPPKLLIYWASTRESGVPDRFSGSGSGTDFTLTISSLQAEDVAVYYCQQYYSYPLTFGCGTKVEIKTRHHHHHH
- binding of monovalent BsAb to Jurkat T cells [1]: bound to Jurkat T cells

B2: h6.3Fab×CD19: monovalent humanized anti-PEG h6.3 Fab fused to hBU12 anti-CD19 dsFv; SEQ ID NO 9, 10, 4, 11, 6 (protein)
chain 1: DIVMTQSPDSLAVSLGERATINCKSSQSVLYSSNQMNYLAWYQQKPGQPPKLLIYWASTRESGVPDRFSGSGSGTDFTLTISSLQAEDVAVYYCLQYLSSWTFGGGTKLEIKTYSLSSTLTLSKADYEKHKLYACEVTHQGLSSPVTKSFNRGEC
chain 2: QVQLVQSGSELKKPGASVKVSCKASGYTFKNYGMNWVRQAPGQGLEWMGWINTYTGQPIYANDFKGRFVFSLDTSVSTAYLQISSLKAEDTAVYYCARDWGPYWGQGTLVTVSSASTKGPSVFPLAPSSKSTSGGTAALGCLVKDYFPEPVTVSWNSGALTSGVHTFPAVLQSSGLYSLSSVVTVPSSSLGTQTYICNVNHKPSNTKVDKRVEPKSCDK
chain 3: VDLVTVSSASTGGGSGQLGGGGS
chain 4: QVQLQESGPGLVKPSQTLSLTCTVSGGSISTSGMGVGWIRQHPGKCLEWIGHIWWDDDKRYNPALKSRVTISVDTSKNQFSLKLSSVTAADTAVYYCARMELWSYYFDYWGQGTLVTVSSGGGGSGGGGSGGGGSEIVLTQSPATLSLSPGERATLSCSASSSVSYMHWYQQKPGQAPRLLIYDTSKLASGIPARFSGSGSGTDFTLTISSLEPEDVAVYYCFQGSVYPFTFGCGTKLEIKR
chain 5: TRHHHHHH
modifications: Humanized 6.3 VL-Ck; Humanized 6.3 VH-CH1; Peptide Linker; hBU12 dsFv; 6xHis Tag
- uptake of PEG-Qdot655 into A431 cells (endocytic vesicles) (A431 (EGFR+) tumor cells): failed to produce PEG-Qdot655 signals
- binding to NH2-PEG10,000-NH2 [2]: bound to the NH2-PEG10,000-NH2
- binding to BSA (BSA): not to the control BSA protein
- effect on cytotoxicity of Doxisome to Raji cells (Raji (CD19+) cells): enhanced cytotoxicity of Doxisome
- directing PEGylated substance to Raji cells (Raji cells (CD19+)): capable of directing PEGylated substance to Raji cells

B3: hcc49 scFv: humanized single-chain antibody fragment against TAG-72 antigen (protein)
scFv: QVQLVQSGAEVKKPGASVKVSCKASGYTFTDHAIHWVRQAPGQCLEWMGYFSPGNDDFKYSQKFQGRVTITADKSASTAYMELSSLRSEDTAVYYCARSWIMQYWGQGTLVTVSSGGGGSGGGGSGGGGSDIVMTQSPDSLAVSLGERATINCKSSQSVLYSSNNKNYLAWYQQKPGQPPKLLIYWASTRESGVPDRFSGSGSGTDFTLTISSLQAEDVAVYYCQQYYSYPLTFGCGTKVEIK
- binding to mucin [3]: bound to mucin
